The values below come from patent US20150011730A1 (UNIVERSITY OF SOUTH CAROLINA, published 2015).

No end group written: not given here. Pyrazole N‑cap, 4‑chlorophenylpyrazole (R1 H, R2 Cl, R3 H, R4 CH3, W N, X N, Y C, Z C) = not defined here Where only a bound is given, the exact number is not on record here.

The target in assay [1] is CDK2/Cyclin A2, full-length recombinant, N-terminal GST tag on both proteins (UniProt P24941 1-298; P20248 1-432). The experiment in a line: cell-based or functional assay.
Assay [2] concerns the target CDK4/Cyclin D1, full-length recombinant, N-terminal GST tag on both proteins (UniProt P11802 2-303; P24385 1-295). The assay can be described thus: cell-based or functional assay.
The target in assay [3] is T1, CDK4/cyclin D1 (as used in the binding assay) (UniProt P11802 1-303; P24385 1-295).
T1 construct: kept apart from the GST-tagged kinase-assay complex m2; also called CDK4/D1
The experiment in a line: FP binding assay.

Assay [4] has as its target CDK2/cyclin A (as used in the binding assay) (UniProt P24941 1-298; P20248 1-432). The assay can be described thus: FP binding assay.
The target of assay [5] is T1, CDK4/cyclin D1 (as used in the binding …). The experiment in a line: FP binding assay. This is another data set of the same source.

Chain of CDK4/Cyclin D1, full-length recombinant, N-terminal GST tag on both proteins (P11802 2-303, chain 1 of 2): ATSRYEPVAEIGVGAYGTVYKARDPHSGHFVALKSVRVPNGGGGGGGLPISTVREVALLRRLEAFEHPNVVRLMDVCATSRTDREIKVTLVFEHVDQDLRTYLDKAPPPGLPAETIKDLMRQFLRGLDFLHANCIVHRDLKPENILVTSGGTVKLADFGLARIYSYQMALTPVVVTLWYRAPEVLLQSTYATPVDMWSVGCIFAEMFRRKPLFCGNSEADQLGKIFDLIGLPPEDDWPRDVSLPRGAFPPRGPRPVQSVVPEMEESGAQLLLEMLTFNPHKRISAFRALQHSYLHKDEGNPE
Chain of CDK4/Cyclin D1, full-length recombinant, N-terminal GST tag on both proteins (P24385 whole entry, chain 2 of 2): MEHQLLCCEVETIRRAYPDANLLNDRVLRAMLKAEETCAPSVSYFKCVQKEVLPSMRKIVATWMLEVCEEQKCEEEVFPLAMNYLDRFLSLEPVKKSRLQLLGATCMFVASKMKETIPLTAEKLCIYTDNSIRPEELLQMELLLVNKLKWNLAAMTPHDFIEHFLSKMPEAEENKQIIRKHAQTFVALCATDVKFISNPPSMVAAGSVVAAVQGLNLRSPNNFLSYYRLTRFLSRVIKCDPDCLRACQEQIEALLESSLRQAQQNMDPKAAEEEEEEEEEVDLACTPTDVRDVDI

B1: HAKRRLIX5 (peptide)
peptide: HAKRRLIA
HELM: PEPTIDE1{H.A.K.R.R.L.I.[O=C([C@H](CC1CCCC1)N[*:1])[*:2]].[am]}$$$$V2.0; N-terminus assumed
SMILES: CC[C@H](C)[C@H](NC(=O)[C@H](CC(C)C)NC(=O)[C@H](CCCNC(=N)N)NC(=O)[C@H](CCCNC(=N)N)NC(=O)[C@H](CCCCN)NC(=O)[C@H](C)NC(=O)[C@@H](N)Cc1c[nH]cn1)C(=O)N[C@@H](CC1CCCC1)C(N)=O
Regarding B1, the “IC50, kinase assay” value in assay [1] stood at 20 µM; in assay [2], 90 µM.

B2: SCCP 5765 (Pyrazole N-cap ligated to RLIF) (peptide)
peptide: {Pyrazole N‑cap, 4‑chlorophenylpyrazole (R1 H, R2 Cl, R3 H, R4 CH3, W N, X N, Y C, Z C)}-RLIF
modifications: reading uncertain; also: cap structure given only by scaffold parameters
notes: also called 4-chlorophenylpyrazole
Turning to B2, the “fold less active relative to the triazole N capping group” value in assay [3] was not below 4 fold. For the same molecule, the IC50 in assay [4] was 33.7 µM; in assay [5] it was 49 µM.

Broadly, the IC50 is the concentration needed to halve the response being measured. A high value points to weaker potency.
